Positions count from the first letter of the chain named.
B1: 3-28 (VHH, not shown: a dimerising Fc or GST)
VHH: EVQLVESGGGLVQPGGSLRLSCAASGFTFRRYDMGWFRQAPGKEREFVSAISGGLAYYADSVKGRFTISADNSKNTAYLQMNSLKPEDTAVYYCAVDLSGDAVYDWGQGTLVTVSS
B2: 7-26 (VHH)
VHH: EVQLVESGGGLVQPGGSLRLSCAASGSTFSINAMGWFRQAPGKEREFVAGITSSGGYTNYADSVKGRFTISADNSKNTAYLQMNSLKPEDTAVYYCAADGVPEYSDYASGPVWGQGTLVTVSS
B3: 3-31 (VHH)
VHH: B2 VHH
notes: also called 3-31_ExpiCHO
B4: 7-30 (VHH, not shown: a dimerising Fc or GST)
VHH: EVQLVESGGGLVQPGGSLRLSCAASGRTFSMHAMGWFRQAPGKEREFVASISSQGRTNYADSVKGRFTISADNSKNTAYLQMNSLKPEDTAVYYCAAEVRNGSDYLPIDWGQGTLVTVSS
B5: 5A-1 (VHH)
VHH: EVQLVESGGGLVQPGGSLRLSCAASGGTFSSIGMGWFRQAPGKEREFVAAISWDGGATAYADSVKGRFTISADNSKNTAYLQMNSLKPEDTAVYYCAKEDVGKPFDWGQGTLVTVSS
B6: 6A-63 (VHH)
VHH: EVQLVESGGGLVQPGGSLRLSCAASGQTFNMGWFRQAPGKEREFVAAIGSGGSTSYADSVKGRFTISADNSKNTAYLQMNSLKPEDTAVYYCWRLGNDYFDYWGQGTLVTVSS
B7: 6A-3 (VHH)
VHH: EVQLVESGGGLVQPGGSLRLSCAASGFTFSPSWMGWFRQAPGKEREFVATINEYGGRNYADSVKGRFTISADNSKNTAYLQMNSLKPEDTAVYYCARVDRDFDYWGQGTLVTVSS
B8: 7-6 (VHH, not shown: a dimerising Fc or GST)
VHH: EVQLVESGGGLVQPGGSLRLSCAASGRIFYPMGWFRQAPGKEREFVAAVRWSSTGIYYTQYADSVKGRFTISADNSKNTAYLQMNSLKPEDTAVYYCAAALSEVWRGSENLREGYDWGQGTLVTVSS
B9: 8-3 (VHH, not shown: a dimerising Fc or GST)
VHH: EVQLVESGGGLVQPGGSLRLSCAASGTTLDYYAMGWFRQAPGKEREFVAAISWSGGSTAYADSVKGRFTISADNSKNTAYLQMNSLKPEDTAVYYCAREDYYDSSGYSWGQGTLVTVSS
B10: 3-17 (VHH, not shown: a dimerising Fc or GST)
VHH: EVQLVESGGGLVQPGGSLRLSCAASGRTSSSAVMGWFRQAPGKEREFVAAINRGGSTIYVDSVKGRFTISADNSKNTAYLQMNSLKPEDTAVYYCATGPYRSYFARSYLWGQGTLVTVSS
B11: 7-32 (VHH)
VHH: EVQLVESGGGLVQPGGSLRLSCAASGSTFSVNAMGWFRQAPGKEREFVAGVTRGGYTNYADSVKGRFTISADNSKNTAYLQMNSLKPEDTAVYYCAADGVPEYSDYASGPVWGQGTLVTVSS
B12: 7-29 (VHH, not shown: a dimerising Fc or GST)
VHH: EVQLVESGGGLVQPGGSLRLSCAASGRTHSIYPMGWFRQAPGKEREFVASITSYGDTNYADSVKGRFTISADNSKNTAYLQMNSLKPEDTAVYYCAARRWIPPGPIWGQGTLVTVSS
B13: 7-24 (VHH, not shown: a dimerising Fc or GST)
VHH: EVQLVESGGGLVQPGGSLRLSCAASGFTFSRHAMNWFRQAPGKEREFVSTITGSGGSTNYADSVKGRFTISADNSKNTAYLQMNSLKPEDTAVYYCAREVGLYYYGSGSSSRRLLGRIDYYFDYWGQGTLVTVSS
B14: 7-8 (VHH)
VHH: B2 VHH with S30T, A49S, T52S, S53H, S54N, Y57T
B15: 3-24 (VHH, not shown: a dimerising Fc or GST)
VHH: EVQLVESGGGLVQPGGSLRLSCAASGINFSRYGMGWFRQAPGKEREFVASITYLGRTNYADSVKGRFTISADNSKNTAYLQMNSLKPEDTAVYYCALRVRPYGQYDWGQGTLVTVSS
B16: 7-21 (VHH)
VHH: EVQLVESGGGLVQPGGSLRLSCAASGRTISRYTMGWFRQAPGKEREFVASITSGGSTAYADSVKGRFTISADNSKNTAYLQMNSLKPEDTAVYYCAKEDVGKPFDWGQGTLVTVSS
B17: 7-41 (VHH)
VHH: B16 VHH with I29F, R31T, T33V, T52S, G54R, S56I, A58H
B18: 7-22 (VHH, not shown: a dimerising Fc or GST)
VHH: B16 VHH with S30T, E98Q
B19: 7-40 (VHH)
VHH: B16 VHH with I29F, S30R, S53K, G54F, A58N
B20: 7-45 (VHH)
VHH: B16 VHH with I29L, A58N
B21: 7-31 (VHH, not shown: a dimerising Fc or GST)
VHH: EVQLVESGGGLVQPGGSLRLSCAASGFTFSNYSMGWFRQAPGKEREFVAAIHWNGDSTAYADSVKGRFTISADNSKNTAYLQMNSLKPEDTAVYYCAAQTEDSAQYIWGQGTLVTVSS
B22: 8-06 (VHH, not shown: a dimerising Fc or GST)
VHH: EVQLVESGGGLVQPGGSLRLSCAASGFTFDYYAMGWFRQAPGKEREFVSAIDSEGRTSYADSVKGRFTISADNSKNTAYLQMNSLKPEDTAVYYCARWGPFDIWGQGTLVTVSS
notes: also called 8-6
B23: 8-10 (VHH, not shown: a dimerising Fc or GST)
VHH: EVQLVESGGGLVQPGGSLRLSCAASGFIGNYHAMGWFRQAPGKEREFVAAVTWSGGTTNYADSVKGRFTISADNSKNTAYLQMNSLKPEDTAVYYCAREGYYYDSSGYPYYFDYWGQGTLVTVSS
B24: 7-17 (VHH, not shown: a dimerising Fc or GST)
VHH: EVQLVESGGGLVQPGGSLRLSCAASGFSLDYYGMGWFRQAPGKEREFVAAITSGGTPHYADSVKGRFTISADNSKNTAYLQMNSLKPEDTAVYYCASAYNPGIGYDWGQGTLVTVSS

The binders below were run against T1, Antibody 178-09_His B.1.1.7 (27080) (SARS-CoV-2, UniProt P0DTC2 14-685) (assay: Carterra SPR).
T1 construct: domain: S1; also called TB178-9
In the case of B1, the Kd is reported as 16.6 nM.
For B2, the Kd was 22.7 nM.
B3 showed a Kd of 16.1 nM.
B4 gave a Kd of 32 nM.

These binders were tested against T2, Antibody 178-08_His 501.V2 (27079) (SARS-CoV-2, UniProt P0DTC2 14-685) (assay: Carterra SPR).
T2 construct: domain: S1; also called TB178-8
With B1 the Kd was 22 nM.
B2 showed a Kd of 74.9 nM.
Binder B3 has a Kd of 96700 nM.

What follows are binders tested against T3, Antibody 178-10_His CA_W152C_L452R_D614G (27081) (SARS-CoV-2, UniProt P0DTC2 14-685) (assay: Carterra SPR).
T3 construct: domain: S1; also called CA variant S1; California variant S1
Binder B5 has a Kd of 12.7 nM.
B6: no binding.
With B2 the Kd was 34.8 nM.
B3 gave a Kd of 41 nM.
For B4, the Kd was 55.9 nM.
Work on B7 yielded a Kd of 26.8 nM.

Each binder was assayed against T4, S1 RBD L452R E484Q (Acro) (SARS-CoV-2, UniProt P0DTC2 319-537) (assay: Carterra SPR).
T4 construct: domain: S1 RBD; also called SARS-COV-2 RBD India Var; L452R E484Q S1; India variant mutation L452R E484Q
B1: no binding.
B8: no binding.
B9: no binding.
B10: no binding.
B11: no binding.
B12: no binding.
B13: no binding.
B14: no binding.
B15: no binding.
B16: no binding.
B17: no binding.
B18: no binding.
B19: no binding.
B20: no binding.
B4: no binding.
B21: no binding.

Target: T1, Antibody 178-09_His B.1.1.7 (27080)
Assay: Carterra SPR
Remark: another data set of the same source
For B1, the Kd was 16.6 nM.
B8 gave a Kd of 42.4 nM.
B22 was tested, and the Kd was 141 nM.
In the case of B9, the Kd is reported as 40.5 nM.
B10: no binding.
Binder B11 has a Kd of 62.4 nM.
B12 was tested, and the Kd was 54.8 nM.
B13: no binding.
With B2 the Kd was 22.7 nM.
For B3, the Kd was 16.1 nM.
B14: no binding.
With B23 the Kd was 377 nM.
B15 gave a Kd of 2610 nM.
B16 was tested, and the Kd was 35.6 nM.
Work on B17 yielded a Kd of 35.6 nM.
B18 gave a Kd of 41.7 nM.
B19: no binding.
Binder B20 has a Kd of 43.4 nM.
B4 gave a Kd of 32 nM.
B21 showed a Kd of 388 nM.
In the case of B24, the Kd is reported as 39.8 nM.

Target: T2, Antibody 178-08_His 501.V2 (27079)
Assay: Carterra SPR
Remark: another data set of the same source
B1 gave a Kd of 22 nM.
B8: no binding.
B22: no binding.
B9 was tested, and the Kd was 1.7 nM.
B10: no binding.
B11: no binding.
B12: no binding.
B13: no binding.
B2 was tested, and the Kd was 74.9 nM.
Work on B3 yielded a Kd of 96700 nM.
B14: no binding.
B23: no binding.
B15 showed a Kd of 586 nM.
B16: no binding.
B17: no binding.
B18: no binding.
B19: no binding.
B20: no binding.
B4: no binding.
B21: no binding.
B24: no binding.

Target: T3, Antibody 178-10_His …
Assay: Carterra SPR
Remark: another data set of the same source
B1: no binding.
B8: no binding.
B22: no binding.
B9 was tested, and the Kd was 100 nM.
B10: no binding.
B11: no binding.
B12: no binding.
B13: no binding.
With B2 the Kd was 34.8 nM.
For B3, the Kd was 41 nM.
B14: no binding.
B23: no binding.
B15: no binding.
Binder B16 has a Kd of 277 nM.
B17 was tested, and the Kd was 95.5 nM.
In the case of B18, the Kd is reported as 698 nM.
B19: no binding.
B20: no binding.
Work on B4 yielded a Kd of 55.9 nM.
B21: no binding.
B24: no binding.

What follows are binders tested against T5, SARS-CoV-2 S1 [S1N-C52H4] (SARS-CoV-2, UniProt P0DTC2 16-685) (assay: Carterra SPR).
T5 construct: domain: S1
For B3, the Kd was 4.12 nM.
